These results are taken from patent publication US20180237497A1 (CANCER RESEARCH TECHNOLOGY, published 2018).

The target of test [1] is T1, human IGF2^1-67 (mature insulin-like growth factor 2) (human, UniProt P01344 25-91, biotinylated (site not stated) where immobilised on the chip (Tables 1-4)).
T1 construct: mature; also called mature IGF2; biotinylated IGF2
In words: SPR steady state, biotin-IGF2 on chip, pH 7.4. On the procedure:
(§1) Final kinetic analysis of mutants by SPR was conducted using a Biacore T200 biosensor at 25° C. in either HBS-EP (10 mM HEPES pH 7.4, 150 mM NaCl, 3 mM EDTA, and 0.005% (v/v) surfactant P20) or MES-EP (20 mM MES pH 6.5, 150 mM NaCl, 3 mM EDTA, and 0.005% (v/v) surfactant P20) at a flow-rate of 40 μL min⁻¹. […] For the analysis of the Fc-domain 11^AB5 interaction, approximately 50 RU of a biotinylated IGF2:biotinylated ubiquitin mixture (1:8 proportion) was immobilized on the CM5-streptavidin chip. This interaction was also analysed by immobilizing the Fc-domain 11^AB5 and Fc-domain 11^AB5-RHH (or Fc-domain 11^I1572A as control) by Human Antibody Capture (monoclonal mouse anti-human IgG antibody immobilised on a CM5 chip by amine coupling, GE Healthcare) with and without human IgG1 Fc fragment (Bethyl Laboratories, UK) in the control flow cell. […] T200 BiaEvaluation software (GE Healthcare) was used to fit the resulting curves according to a 1:1 binding model. Steady state affinities were determined using the kinetic data, taking the response average at 5 seconds before injection end and for 5 seconds average. Thermodynamic data was performed across the temperature range of 10° C. to 30° C., van't Hoff and Erying plots generated and ΔH, −TΔS and ΔG values determined as previously described.

The target in test [2] is T1, human IGF2^1-67 (mature insulin-like …). In words: SPR kinetic, biotin-IGF2 on chip, pH 7.4. As to the method:
as §1
(In SPR one partner is held on a chip, and binding of the other changes the refractive index at the surface.)

Test [3] has the same target. In words: SPR.
Description: (§2) Surface plasmon resonance (SPR) binding analysis of recombinant M6P/IGF2R domain 11 mutants interaction with IGF2. Kon indicates association (on) rate; koff, dissociation (off) rate; RU, response units. Binding to IGF2 assessed with BIAcore T200 using purified biotinylated IGF2 and IGF1 on a streptavidin biosensor chip. Recombinant proteins were expressed either in E. coli and/or P. pastoris. All the mutants in the FG and CD loops are on the domain 11^AB5 background for the AB loop unless otherwise stated. All experiments were carried out at 25° C. in HBS-EP buffer (pH 7.4), were repeated 2-5 times on two independent BIAcore chips. nd=not determined. Data for KD expressed as mean of each experiment, and means of kon and koff are shown.
as §1, with “model.” for “model. Steady state affinities were determined using the kinetic data, taking the response average at 5 seconds before injection end and for 5 seconds average. Thermodynamic data was performed across the temperature range of 10° C. to 30° C., van't Hoff and Erying plots generated and ΔH, −TΔS and ΔG values determined as previously described.”

For test [4] the target is unchanged. The test can be described thus: SPR kinetic, biotin-IGF2 on chip. As to the method:
as §1

For test [5] the target is unchanged. In words: SPR steady state, biotin-IGF2 on chip. As to the method: as §1
Test [6] shares this target. In words: SPR steady state, biotin-IGF2 on chip, pH 7.4.
Description: as §2
as §1, with “average.” for “average. Thermodynamic data was performed across the temperature range of 10° C. to 30° C., van't Hoff and Erying plots generated and ΔH, −TΔS and ΔG values determined as previously described.”
This is another data set of the same source.

Test [7] has the same target. In words: SPR kinetic, biotin-IGF2 on chip, pH 7.4.
Description: as §2
as §1, with “average.” for “average. Thermodynamic data was performed across the temperature range of 10° C. to 30° C., van't Hoff and Erying plots generated and ΔH, −TΔS and ΔG values determined as previously described.”
This is another data set of the same source.

T1 sequence (P01344 25-91): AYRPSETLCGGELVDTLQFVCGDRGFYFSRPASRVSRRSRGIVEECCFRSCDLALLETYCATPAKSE

B1: domain 11^AB3 P1597K (receptor)
chain: MKSNEHDDCQVTNPSTGHLFDLSSLSGRAGFTAAYSKSGVVYMSICGENENCPPGVGACFGQTRISVGKANKRLRYVDQVLQLVYKDGSKCPSKSGLSYKSVISFVCRPEAGPTNRPMLISLDKQTCTLFFSWHTPLACEQATECSV
notes: See m5
As a reminder, the Kd is the concentration at which binding is half-saturated. The low end stands for a tighter complex, the high end for a looser complex. One may read the koff as the rate constant with which the complex falls apart. The low end stands for slow dissociation, the high end for fast dissociation. As a reminder, the kon is the second-order rate constant of association. In test [1], B1 registered a Kd of 3.59 nM. In test [2], this molecule displayed a Kd of 2.78 nM, a koff of 0.0287 s⁻¹ and a kon of 1.05e+07 M⁻¹ s⁻¹. In test [3], the “fold change of KD against domain 11^AB3” value is 6 fold and the “fold reduction of koff against domain 11^AB3” value was determined as 2 fold.

B2: domain 11^WT + 312G (HI-VKLM) (receptor)
chain: MKSNEHDDCQVTNPSTGHLFDLSSLSGRAGFTAAYSEKGLVYMSICGENENCPPGVGACFGQTRISVGKANKRLRYVDQVLQLVYKDGSPCPSKSGLSYKSVISFVCRPEAGPTNRPMLISLVKLMCTLFFSWHTPLACEQATECSV
notes: See m5; Protein quality poor
Regarding B2, in test [4], binding was put at a Kd of 119 nM, the dissociation rate constant (koff) is 0.15 s⁻¹ and the kon was 1.07e+06 M⁻¹ s⁻¹. Besides, in test [5], the Kd turned out to be 135 nM.

B3: domain 11^AB5 Q1569R P1597K S1602H (receptor)
chain: MKSNEHDDCQVTNPSTGHLFDLSSLSGRAGFTAAYAKGWGVYMSICGENENCPPGVGACFGRTRISVGKANKRLRYVDQVLQLVYKDGSKCPSKHGLSYKSVISFVCRPEAGPTNRPMLISLDKQTCTLFFSWHTPLACEQATECSV
notes: See m5
B3 showed a Kd in test [1] of 2.11 nM. For the same molecule, in test [2], the Kd is 0.92 nM, the koff is 0.0073 s⁻¹ and the kon stood at 7.87e+06 M⁻¹ s⁻¹.

B4: domain 11^AB5 + 51F (HI-NRQS) (receptor)
chain: MKSNEHDDCQVTNPSTGHLFDLSSLSGRAGFTAAYAKGWGVYMSICGENENCPPGVGACFGQTRISVGKANKRLRYVDQVLQLVYKDGSPCPSKSGLSYKSVISFVCRPEAGPTNRPMLISLNRQSCTLFFSWHTPLACEQATECSV
notes: See m5; Protein quality poor
In test [4], B4 had a Kd of 13.5 nM, a koff of 0.1 s⁻¹ and a kon of 7.4e+06 M⁻¹ s⁻¹. The molecule further yielded a Kd in test [5] of 6.94 nM.

B5: domain 11^WT + 23D (HI-HFQS) (receptor)
chain: MKSNEHDDCQVTNPSTGHLFDLSSLSGRAGFTAAYSEKGLVYMSICGENENCPPGVGACFGQTRISVGKANKRLRYVDQVLQLVYKDGSPCPSKSGLSYKSVISFVCRPEAGPTNRPMLISLHFQSCTLFFSWHTPLACEQATECSV
notes: See m5; Protein quality poor based on absorption spectra
In the case of B5, in test [4], the Kd came to 176 nM, the koff is 0.065 s⁻¹ and the kon came out at 250000 M⁻¹ s⁻¹. The molecule also returned a Kd in test [5] of 220 nM.

B6: domain 11^WT + 27G (HI-NMAL) (receptor)
chain: MKSNEHDDCQVTNPSTGHLFDLSSLSGRAGFTAAYSEKGLVYMSICGENENCPPGVGACFGQTRISVGKANKRLRYVDQVLQLVYKDGSPCPSKSGLSYKSVISFVCRPEAGPTNRPMLISLNMALCTLFFSWHTPLACEQATECSV
notes: See m5; Protein quality poor
In test [4], B6 registered a Kd of 195 nM, a koff of 0.25 s⁻¹ and a kon of 2e+06 M⁻¹ s⁻¹. Further, the Kd in test [5] is 194 nM.

B7: domain 11^AB5 Q1569R P1597K (receptor)
chain: MKSNEHDDCQVTNPSTGHLFDLSSLSGRAGFTAAYAKGWGVYMSICGENENCPPGVGACFGRTRISVGKANKRLRYVDQVLQLVYKDGSKCPSKSGLSYKSVISFVCRPEAGPTNRPMLISLDKQTCTLFFSWHTPLACEQATECSV
notes: See m5
As for B7, in test [1], binding was put at a Kd of 1.69 nM. In test [2], this molecule had a Kd of 0.95 nM, a koff of 0.0091 s⁻¹ and a kon of 9.59e+06 M⁻¹ s⁻¹.

B8: domain 11^AB5 S1602Q (receptor)
chain: MKSNEHDDCQVTNPSTGHLFDLSSLSGRAGFTAAYAKGWGVYMSICGENENCPPGVGACFGQTRISVGKANKRLRYVDQVLQLVYKDGSPCPSKQGLSYKSVISFVCRPEAGPTNRPMLISLDKQTCTLFFSWHTPLACEQATECSV
notes: See m5
For the molecule B8, the “fold improvement of affinity” value in test [3] is not above 2 fold. The molecule further yielded a Kd in test [6] of 5.11 nM. In test [7], this molecule gave a Kd of 3.61 nM, a koff of 0.0191 s⁻¹ and a kon of 5.88e+06 M⁻¹ s⁻¹.

B9: domain 11^AB5 Q1569R P1597H K1631W (receptor)
chain: MKSNEHDDCQVTNPSTGHLFDLSSLSGRAGFTAAYAKGWGVYMSICGENENCPPGVGACFGRTRISVGKANKRLRYVDQVLQLVYKDGSHCPSKSGLSYKSVISFVCRPEAGPTNRPMLISLDWQTCTLFFSWHTPLACEQATECSV
notes: See m5
In the case of B9, the Kd in test [1] was 1.95 nM. In addition, in test [2], the affinity, expressed as Kd, was 1.02 nM; the koff came to 0.0115 s⁻¹; the kon was determined as 1.12e+07 M⁻¹ s⁻¹.

B10: domain 11^WT + 26C (HI-DMQT) (receptor)
chain: MKSNEHDDCQVTNPSTGHLFDLSSLSGRAGFTAAYSEKGLVYMSICGENENCPPGVGACFGQTRISVGKANKRLRYVDQVLQLVYKDGSPCPSKSGLSYKSVISFVCRPEAGPTNRPMLISLDMQTCTLFFSWHTPLACEQATECSV
notes: See m5; Protein quality poor
In test [4], B10 came in with a Kd of 130 nM, a koff of 0.24 s⁻¹ and a kon of 1.89e+06 M⁻¹ s⁻¹. Further, the Kd in test [5] was determined as 127 nM.

B11: domain 11^AB5 W1546F (receptor)
chain: MKSNEHDDCQVTNPSTGHLFDLSSLSGRAGFTAAYAKGFGVYMSICGENENCPPGVGACFGQTRISVGKANKRLRYVDQVLQLVYKDGSPCPSKSGLSYKSVISFVCRPEAGPTNRPMLISLDKQTCTLFFSWHTPLACEQATECSV
notes: See m5
Turning to B11, the “fold reduction of koff” value in test [3] was found to be 2 fold. Further, binding in test [6] was characterised by a dissociation constant (Kd) of 5 nM. In addition, in test [7], the Kd came to 4.35 nM, the koff worked out at 0.018 s⁻¹ and the kon turned out to be 4.5e+06 M⁻¹ s⁻¹.

B12: domain 11^AB5 K1601R (receptor)
chain: MKSNEHDDCQVTNPSTGHLFDLSSLSGRAGFTAAYAKGWGVYMSICGENENCPPGVGACFGQTRISVGKANKRLRYVDQVLQLVYKDGSPCPSRSGLSYKSVISFVCRPEAGPTNRPMLISLDKQTCTLFFSWHTPLACEQATECSV
notes: See m5
Turning to B12, the “fold improvement of affinity” value in test [3] was not above 2 fold. This molecule gave a dissociation constant (Kd) in test [6] of 5.78 nM. In test [7], this molecule came in with a Kd of 4.75 nM, a koff of 0.0251 s⁻¹ and a kon of 5.28e+06 M⁻¹ s⁻¹.
